Data: patent publication US20240034813A1 (Janssen / Centocor, published 2024)

Columns and labels:
[1] = biological target: T1, recombinant human EGFR/ErbB1/HER1 with C-terminal His tag, Cy5-labeled (human, UniProt P00533 25-645, Cy5 label (reacted with Cy5 Mono NHS Ester; sites not stated)); assay: competitive TR-FRET (Eu-amivantamab/Cy5-EGFR), EC50 ratio vs Reference Material; Ex. 11 drug product, 3 months at 5 C
T1 construct: Commercial protein; also called Cy5-EGFR; Cy5-labeled EGFR antigen; not shown: C-terminal His tag
Description: (§1) In this procedure, varying concentrations of unlabeled bispecific EGFR-cMet antibody sample compete with donor fluorophore (Europium (Eu) chelate) labeled bispecific EGFR-cMet antibody for binding to an acceptor fluorophore (Cy5)-labeled EGFR antigen. Excitation of the donor fluorophore results in a transfer of energy to the bound acceptor fluorophore (FRET process). The resultant FRET is detected by emission of light at 665 nm using a microplate reader capable of measuring time-resolved fluorescence. Sample dose response curves are compared to the RM.
(§2) EGFR Binding Materials and Methods. Certified commercial EGFR, a recombinant human EGFR/ErbB1/HER1 with C-terminal His tag is reacted with certified commercial Cy5 Mono NHS Ester to produce Cy5-labeled EGFR. Validated bispecific EGFR-cMet antibody is reacted with certified commercial Europium (Eu) chelate to produce Eu-labeled bispecific EGFR-cMet antibody. […] Fluorescence is then measured by spectrophotometry at 665 nm, plotted against antibody concentration and analyzed by a four-parameter logistic model. The antibody concentration required to obtain half of the maximum fluorescence response (EC50) is determined for RM, assay control and samples. The potencies of assay control and samples are calculated based on the ratio of the sample (or control) and RM EC50 values and reported as a percentage activity relative to the RM.

[2] = biological target: T1, recombinant human EGFR/ErbB1/HER1 with …; assay: competitive TR-FRET (Eu-amivantamab/Cy5-EGFR), EC50 ratio vs Reference Material; Ex. 11 drug product, 0 months, 5 C table
Description: as §1, §2

[3] = biological target: T1, recombinant human EGFR/ErbB1/HER1 with …; assay: competitive TR-FRET (Eu-amivantamab/Cy5-EGFR), EC50 ratio vs Reference Material; Ex. 11 drug product, 0 months, 40 C table
Description: as §1, §2

[4] = biological target: T1, recombinant human EGFR/ErbB1/HER1 with …; assay: competitive TR-FRET (Eu-amivantamab/Cy5-EGFR), EC50 ratio vs Reference Material; Ex. 12 drug product with rHuPH20, 9 months at 5 C
Description: as §1, §2

[5] = biological target: T1, recombinant human EGFR/ErbB1/HER1 with …; assay: competitive TR-FRET (Eu-amivantamab/Cy5-EGFR), EC50 ratio vs Reference Material; Ex. 12 drug product with rHuPH20, 1 month at 40 C
Description: as §1, §2

[6] = biological target: T2, recombinant cMet/HGFR with c-terminal His-tag, Cy5-labeled (UniProt P08581 25-932, limits assumed, Cy5 label (reacted with Cy5 Mono NHS Ester; sites not stated)); assay: competitive TR-FRET (Eu-amivantamab/Cy5-c-MET), EC50 ratio vs Reference Material; Ex. 12 drug product with rHuPH20, 6 months at 5 C
T2 construct: Commercial protein; also called Cy5-c-MET; Cy5-labeled c-MET antigen; not shown: C-terminal His-tag
Description: In this procedure, varying concentrations of unlabeled bispecific EGFR-cMet antibody sample compete with donor fluorophore (Europium (Eu) chelate) labeled bispecific EGFR-cMet antibody for binding to an acceptor fluorophore (Cy5)-labeled c-MET antigen. Excitation of the donor fluorophore results in a transfer of energy to the bound acceptor fluorophore (FRET process). The resultant FRET is detected by emission of light at 665 nm using a microplate reader capable of measuring time-resolved fluorescence. Sample dose response curves are compared to the Reference Material (RM).
as §2, with “c-MET Binding” for “EGFR Binding”, “commercial cMet,” for “commercial EGFR,”, “recombinant cMet/HGFR” for “recombinant human EGFR/ErbB1/HER1”, “with c-terminal His-tag” for “with C-terminal His tag”, “Cy5-labeled c-MET.” for “Cy5-labeled EGFR.”, “produce Eu labeled” for “produce Eu-labeled”

[7] = biological target: T1, recombinant human EGFR/ErbB1/HER1 with …; assay: competitive TR-FRET (Eu-amivantamab/Cy5-EGFR), EC50 ratio vs Reference Material; Ex. 12 drug product with rHuPH20, 0 months, 5 C table
Description: as §1, §2

[8] = biological target: T1, recombinant human EGFR/ErbB1/HER1 with …; assay: competitive TR-FRET (Eu-amivantamab/Cy5-EGFR), EC50 ratio vs Reference Material; Ex. 2 Formulation 2 (50 mM histidine), 1 month at 40 C
Description: as §1, §2

B1: amivantamab (bispecific antibody, human IgG1, kappa)
heavy 1: not shown
light 1: not shown
heavy 2: not shown
light 2: DIQMTQSPSSVSASVGDRVTITCRASQGISNWLAWFQHKPGKAPKLLIYAASSLLSGVPSRFSGSGSGTDFTLTISSLQPEDFATYYCQQANSFPITFGQGTRLEIKRTVAAPSVFIFPPSDEQLKSGTASVVCLLNNFYPREAKVQWKVDNALQSGNSQESVTEQDSKDSTYSLSSTLTLSKADYEKHKVYACEVTHQGLSSPVTKSFNRGEC
notes: The samples tested were high concentration (160 mg/mL) formulations, fresh or stored or stressed; also called JNJ-61186372; bispecific EGFR-cMet antibody
- EGFR Binding activity relative to Reference Material (%) [1]: 74%
- EGFR Binding activity relative to Reference Material (%) [2]: 89%
- EGFR Binding activity relative to Reference Material (%) [3]: 89%
- EGFR Binding activity relative to Reference Material (%) [4]: 87%
- EGFR Binding activity relative to Reference Material (%) [5]: 41%
- cMET Binding activity relative to Reference Material (%) [6]: 102%
- EGFR Binding activity relative to Reference Material (%) [7]: 92%
- EGFR Binding % activity relative to RM [8]: 68%
